Tested on: MS2 coat protein
Experiment: apparent KD of MS2 coat protein; designed switch direction (-1 OFF switch, 1 ON switch): 1; higher = weaker reporter binding
In short: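 The apparent KD reported per design is the median over clusters of curve fits to normalised cluster fluorescence. The RNA switches were transcribed on Illumina chips by stalled E. coli RNA polymerase. SNAP-549-labelled MS2 coat protein was titrated from 0.7 or 1.5 nM, doubling up to 3 µM, in Tris-HCl pH 7.5 buffer containing KCl, MgCl2, BSA, DTT, tRNA and Tween-20, with no input, 200 uM small-molecule ligand, or an oligonucleotide input.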

[1] = input ligand: microRNA oligo, concentration not stated
[2] = Eterna round: R95, input ligand: FMN 200 uM
[3] = Eterna round: R95, input ligand: microRNA oligo, concentration not stated
[4] = Eterna round: R95, input ligand: none

| Sequence | apparent KD of MS2 coat protein (input ligand: FMN 200 uM) | apparent KD of MS2 coat protein [1] | apparent KD of MS2 coat protein (input ligand: none) | apparent KD of MS2 coat protein [2] | apparent KD of MS2 coat protein [3] | apparent KD of MS2 coat protein [4] |
| --- | --- | --- | --- | --- | --- | --- |
| CCUUAACAGUGAGGAUAUCGUUGCGAUAAGUGACGAGAAGGCACUCAUGUGAAAUAAACAUACAUGAGGAUCACCCAUGUUGUG [Omei SS(NG)1 Bv5] (Eterna round: R96, puzzle: Same State NG 1) | 34.4 nM | 40 nM | 44.2 nM |  |  |  |
| CGAGGCGUACAUGAGGAUCACCCAUGUACCUAACAACAAAGCAAGGAUAUCCUGGCUAUAAUACAGGAGAAGGUGUGGUCCUUA [Eternabot solution 15] (Eterna round: R96, puzzle: Same State NG 3) |  | 107 nM |  |  |  |  |
| CGCCGACAUGAGGAUCACCCAUGUGAGCGACUCACAGGAUAUACGCGAUAACAACUUCGCGUAGAAGGGUGCUCCU [Esvezaza] (puzzle: Same State 1) |  |  |  | 14.4 nM | 12.2 nM | 14.4 nM |
| CGCGGUAAGGAAGGAUAUGGGACGAAAACGUACCUAGAAGGUCCACAUGAGGAUCACCCAUGUACCAAGAAAGCCGCGAAAUUA [Cereraus] (Eterna round: R96, puzzle: Same State NG 1) | 90.7 nM | 276 nM | 410 nM |  |  |  |
| CGCUGUCACGCAGGAUAUGCAUUGGAUUACAAUGCAGAAGGGCGAUCACAUGAGGAUCACCCAUGUGUAGACAGUGAAGAAGAG [MOD2 JMF Solution 3] (Eterna round: R96, puzzle: Same State NG 1) | 46.1 nM | 479 nM | 480 nM |  |  |  |
| CGUAGGUAGCUGGAGGAUAUUCGAGUGGUAACAUGAGGAUCACCCAUGUGGAGUUAGGUACAUGAGGAGAAGGCUAGCUGCCUGC [JL-ss2-3.18 JL mod] (puzzle: Same State 2) |  |  |  | 10.4 nM | 23 nM | 27.4 nM |
| CGUCCGGCCUGAGCUGGACGGUAGCAUGUACAUGAGGAUCACCCAUGUUCAUGUGCAGGCUUUUUGCUCGUCUUGUG [salish99_mir208a_modof_jandersonlee_003] (puzzle: Sensor for hsa-mir-208a) |  |  |  | 42.3 nM | 10.6 nM | 44.9 nM |
| CGUCCGGCCUGUGCUGGCCGGAAGCUUGUACAUGAGGAUCACCCAUGUUCAUGUGCAGGCUUUUUGCUCGUCUUGUG [salish99_mir208a_009] (puzzle: Sensor for hsa-mir-208a) |  |  |  | 26.4 nM | 30.9 nM | 32.2 nM |
| CGUCCGGCCUGUGCUGGCCGGUAGCUUGUACAUGAGGAUCACCCAUGUUCAUGUGCAGGCUUUUUGCUCGUCUUGUG [salish99_mir208a_014] (puzzle: Sensor for hsa-mir-208a) |  |  |  | 27.9 nM | 29.6 nM | 31.5 nM |
| CGUCCGGCCUGUGCUGGCCGGUGGCGUGUACAUGAGGAUCACCCAUGUUCUUGUGCUGGCUGUUUGCUCGUCUUGUG [salish99_mir208a_r3_025] (puzzle: Sensor for hsa-mir-208a) |  |  |  | 44.8 nM | 23 nM | 58.2 nM |
| CGUGAACAUGAGGAUCACCCAUGUGAAAAACAUAGAGGAUAUGUCACGUGAGUGUAAAAGACAGAAGGCUAUCGUG [Mod 3 of Round 1 starryjess' Mod pf Nando] (Eterna round: R96, puzzle: Same State 1) | 38.1 nM | 78.3 nM | 77.6 nM |  |  |  |
| CGUGGGUGGCUGGAGGAUAUUCGAGUGGUAACAUGAGGAUCACCCAUGUGUCGCGCGGUACAUGAGGAGAAGGCUGGCGGCCGGC (puzzle: Same State 2) |  |  |  | 225 nM | 40.1 nM | 76.2 nM |
| CUACGAGCGCCACAGGAUAUACUGAGACUCACAUGAGGAUCACCCAUGUCCAAUUCUCCCAAAUAGUAGAAGGGUGACGCGCUCG [Maenve] (Eterna round: R96, puzzle: Same State 2) | 35.5 nM | 426 nM | 562 nM |  |  |  |
| CUACGAGCGCCACAGGAUAUACUGAGACUCACAUGAGGAUCACCCAUGUCCAAUUCUCCCAAAUAGUAGAAGGGUGACGCGCUCG [Maenve] (puzzle: Same State 2) |  |  |  | 37.1 nM | 480 nM | 950 nM |
| CUGAGAUGUCAAGGAUAUCACGUCGAUUAGACGUGAGAAGGUGAUCUGCACAUGAGGAUCACCCAUGUGUUACAUGGAACUCAG [Brourd's SSNG1/1-A2 mod 11] (Eterna round: R96, puzzle: Same State NG 1) | 197 nM | 386 nM | 431 nM |  |  |  |

— the supplement of paper PMC9170038
